Ends that are not written are not given here. * marks the point of attachment. 125I = [125I]*

This test has as its target NTP receptor on human neutrophils (human). Briefly: saturation curve and Scatchard-like analysis of 125I-NTP-Y binding to human neutrophils.

B1: 125I-labeled NTP-Y (human Neutrophil Targeting Peptide synthesized with an N-terminal tyrosine) (peptide)
peptide: Y(125I)RRPESKATNATLDPR
Take B1: the NTP receptors per cell (receptors per cell) amounted to 3000.
